Laboratory results published in article PMC10454665, “Structural Analysis of Plasmodium falciparum Hexokinase Provides Novel Information about Catalysis Due to a Plasmodium-Specific Insertion” (International Journal of Molecular Sciences, 2023).

Biological target: the molecule itself
Test: SEC; HiLoad 16/60 Superdex 200 on an AKTA pure system after Talon purification; PfHK eluted at ~65 mL; mass estimated from a calibration curve

B1: Plasmodium falciparum hexokinase (enzyme)
chain: MSEYDIAKNDVTYTKLDTIECDIPINEELSWRINKFVNQLRISYSTLEEFVDNFVYELKKGLEAHRKHPNLWIPHECSFKMLDSCIANIPTGQEKGTYYAIDFGGTNFRAVRASLDGKGKIKRDQETYSLKFTGSYSHEKGLLDKHATASQLFDHFAERIKYIMGEFNDLDNKEVKSVGFTFSFPCTSPSINCSILIDWTKGFETGRATNDPVEGRDVCKLMNDAFVRAAIPAKVCCVLNDAVGTLMSCAYQKGRGTPPCYIGIILGTGSNGCYYEPEWKKYKYAGKIINIEFGNFDKDLPTSPIDLVMDWYSANRSRQLFEKMISGAYLGEIVRRFMVNVLQSACSKKMWISDSFNSESGSVVLNDTSKNFEDSRKVAKAAWDMDFTDEQIYVLRKICEAVYNRSAALARGTIAAIAKRIKIIEHSKFTCGVDGSLFVKNAWYCKRLQEHLKVILADKAENLIIIPADDGSGKGAAITAAVIALNADIPQLP
notes: Hexokinase of Plasmodium falciparum, PlasmoDB PF3D7_0624000, gene ordered codon-optimised for E. coli and cloned into pET30a-c(+); the model holds I25-N486 (subunit A) and I23-I489 (subunit B); The PlasmoDB id is that of strain 3D7; also called PfHK; P. falciparum hexokinase
  stoichiometry N: 4
